In general, Km refers to the concentration of substrate that gives half-maximal velocity. One may read the kcat as the number of substrate molecules converted per active site and unit of time at saturation. For orientation: kcat/Km means the second-order rate constant that governs catalysis at low substrate concentration.

Data on ten proteins can be found in publication PMC9628839, “Structure Based Protein Engineering of Aldehyde Dehydrogenase from Azospirillum brasilense to Enhance Enzyme Activity against Unnatural 3-Hydroxypropionaldehyde” (Journal of Microbiology and Biotechnology, 2021).

The chains are these.
B1: AbKGSADH (Azospirillum brasilense; P444F) (protein)
chain: ANVTYTDTQLLIDGEWVDAASGKTIDVVNPATGKPIGRVAHAGIADLDRALAAAQSGFEAWRKVPAHERAATMRKAAALVRERADAIAQLMTQEQGKPLTEARVEVLSAADIIEWFADEGRRVYGRIVPPRNLGAQQTVVKEPVGPVAAFTPWNFPVNQVVRKLSAALATGCSFLVKAPEETPASPAALLRAFVDAGVPAGVIGLVYGDPAEISSYLIPHPVIRKVTFTGSTPVGKQLASLAGLHMKRATMELGGHAPVIVAEDADVALAVKAAGGAKFRNAGQVCISPTRFLVHNSIRDEFTRALVKHAEGLKVGNGLEEGTTLGALANPRRLTAMASVIDNARKVGASIETGGERIGSEGNFFAPTVIANVPLDADVFNNEPFGPVAAIRGFDKLEEAIAEANRLPFGLAGYAFTRSFANVHLLTQRLEVGMLWINQPATFWPEMPFGGVKDSGYGSEGGPEALEPYLVTKSVTVMAV
B2: AbKGSADH (Azospirillum brasilense; S109L) (protein)
chain: ANVTYTDTQLLIDGEWVDAASGKTIDVVNPATGKPIGRVAHAGIADLDRALAAAQSGFEAWRKVPAHERAATMRKAAALVRERADAIAQLMTQEQGKPLTEARVEVLLAADIIEWFADEGRRVYGRIVPPRNLGAQQTVVKEPVGPVAAFTPWNFPVNQVVRKLSAALATGCSFLVKAPEETPASPAALLRAFVDAGVPAGVIGLVYGDPAEISSYLIPHPVIRKVTFTGSTPVGKQLASLAGLHMKRATMELGGHAPVIVAEDADVALAVKAAGGAKFRNAGQVCISPTRFLVHNSIRDEFTRALVKHAEGLKVGNGLEEGTTLGALANPRRLTAMASVIDNARKVGASIETGGERIGSEGNFFAPTVIANVPLDADVFNNEPFGPVAAIRGFDKLEEAIAEANRLPFGLAGYAFTRSFANVHLLTQRLEVGMLWINQPATPWPEMPFGGVKDSGYGSEGGPEALEPYLVTKSVTVMAV
B3: AbKGSADH (Azospirillum brasilense; P444G) (protein)
chain: ANVTYTDTQLLIDGEWVDAASGKTIDVVNPATGKPIGRVAHAGIADLDRALAAAQSGFEAWRKVPAHERAATMRKAAALVRERADAIAQLMTQEQGKPLTEARVEVLSAADIIEWFADEGRRVYGRIVPPRNLGAQQTVVKEPVGPVAAFTPWNFPVNQVVRKLSAALATGCSFLVKAPEETPASPAALLRAFVDAGVPAGVIGLVYGDPAEISSYLIPHPVIRKVTFTGSTPVGKQLASLAGLHMKRATMELGGHAPVIVAEDADVALAVKAAGGAKFRNAGQVCISPTRFLVHNSIRDEFTRALVKHAEGLKVGNGLEEGTTLGALANPRRLTAMASVIDNARKVGASIETGGERIGSEGNFFAPTVIANVPLDADVFNNEPFGPVAAIRGFDKLEEAIAEANRLPFGLAGYAFTRSFANVHLLTQRLEVGMLWINQPATGWPEMPFGGVKDSGYGSEGGPEALEPYLVTKSVTVMAV
B4: AbKGSADH (Azospirillum brasilense; S109G) (protein)
chain: ANVTYTDTQLLIDGEWVDAASGKTIDVVNPATGKPIGRVAHAGIADLDRALAAAQSGFEAWRKVPAHERAATMRKAAALVRERADAIAQLMTQEQGKPLTEARVEVLGAADIIEWFADEGRRVYGRIVPPRNLGAQQTVVKEPVGPVAAFTPWNFPVNQVVRKLSAALATGCSFLVKAPEETPASPAALLRAFVDAGVPAGVIGLVYGDPAEISSYLIPHPVIRKVTFTGSTPVGKQLASLAGLHMKRATMELGGHAPVIVAEDADVALAVKAAGGAKFRNAGQVCISPTRFLVHNSIRDEFTRALVKHAEGLKVGNGLEEGTTLGALANPRRLTAMASVIDNARKVGASIETGGERIGSEGNFFAPTVIANVPLDADVFNNEPFGPVAAIRGFDKLEEAIAEANRLPFGLAGYAFTRSFANVHLLTQRLEVGMLWINQPATPWPEMPFGGVKDSGYGSEGGPEALEPYLVTKSVTVMAV
B5: AbKGSADH (Azospirillum brasilense) (protein)
chain: ANVTYTDTQLLIDGEWVDAASGKTIDVVNPATGKPIGRVAHAGIADLDRALAAAQSGFEAWRKVPAHERAATMRKAAALVRERADAIAQLMTQEQGKPLTEARVEVLSAADIIEWFADEGRRVYGRIVPPRNLGAQQTVVKEPVGPVAAFTPWNFPVNQVVRKLSAALATGCSFLVKAPEETPASPAALLRAFVDAGVPAGVIGLVYGDPAEISSYLIPHPVIRKVTFTGSTPVGKQLASLAGLHMKRATMELGGHAPVIVAEDADVALAVKAAGGAKFRNAGQVCISPTRFLVHNSIRDEFTRALVKHAEGLKVGNGLEEGTTLGALANPRRLTAMASVIDNARKVGASIETGGERIGSEGNFFAPTVIANVPLDADVFNNEPFGPVAAIRGFDKLEEAIAEANRLPFGLAGYAFTRSFANVHLLTQRLEVGMLWINQPATPWPEMPFGGVKDSGYGSEGGPEALEPYLVTKSVTVMAV
B6: AbKGSADH (Azospirillum brasilense; P444S) (protein)
chain: ANVTYTDTQLLIDGEWVDAASGKTIDVVNPATGKPIGRVAHAGIADLDRALAAAQSGFEAWRKVPAHERAATMRKAAALVRERADAIAQLMTQEQGKPLTEARVEVLSAADIIEWFADEGRRVYGRIVPPRNLGAQQTVVKEPVGPVAAFTPWNFPVNQVVRKLSAALATGCSFLVKAPEETPASPAALLRAFVDAGVPAGVIGLVYGDPAEISSYLIPHPVIRKVTFTGSTPVGKQLASLAGLHMKRATMELGGHAPVIVAEDADVALAVKAAGGAKFRNAGQVCISPTRFLVHNSIRDEFTRALVKHAEGLKVGNGLEEGTTLGALANPRRLTAMASVIDNARKVGASIETGGERIGSEGNFFAPTVIANVPLDADVFNNEPFGPVAAIRGFDKLEEAIAEANRLPFGLAGYAFTRSFANVHLLTQRLEVGMLWINQPATSWPEMPFGGVKDSGYGSEGGPEALEPYLVTKSVTVMAV
B7: AbKGSADH (Azospirillum brasilense; P444L) (protein)
chain: ANVTYTDTQLLIDGEWVDAASGKTIDVVNPATGKPIGRVAHAGIADLDRALAAAQSGFEAWRKVPAHERAATMRKAAALVRERADAIAQLMTQEQGKPLTEARVEVLSAADIIEWFADEGRRVYGRIVPPRNLGAQQTVVKEPVGPVAAFTPWNFPVNQVVRKLSAALATGCSFLVKAPEETPASPAALLRAFVDAGVPAGVIGLVYGDPAEISSYLIPHPVIRKVTFTGSTPVGKQLASLAGLHMKRATMELGGHAPVIVAEDADVALAVKAAGGAKFRNAGQVCISPTRFLVHNSIRDEFTRALVKHAEGLKVGNGLEEGTTLGALANPRRLTAMASVIDNARKVGASIETGGERIGSEGNFFAPTVIANVPLDADVFNNEPFGPVAAIRGFDKLEEAIAEANRLPFGLAGYAFTRSFANVHLLTQRLEVGMLWINQPATLWPEMPFGGVKDSGYGSEGGPEALEPYLVTKSVTVMAV
B8: AbKGSADH (Azospirillum brasilense; R281Y) (protein)
chain: ANVTYTDTQLLIDGEWVDAASGKTIDVVNPATGKPIGRVAHAGIADLDRALAAAQSGFEAWRKVPAHERAATMRKAAALVRERADAIAQLMTQEQGKPLTEARVEVLSAADIIEWFADEGRRVYGRIVPPRNLGAQQTVVKEPVGPVAAFTPWNFPVNQVVRKLSAALATGCSFLVKAPEETPASPAALLRAFVDAGVPAGVIGLVYGDPAEISSYLIPHPVIRKVTFTGSTPVGKQLASLAGLHMKRATMELGGHAPVIVAEDADVALAVKAAGGAKFYNAGQVCISPTRFLVHNSIRDEFTRALVKHAEGLKVGNGLEEGTTLGALANPRRLTAMASVIDNARKVGASIETGGERIGSEGNFFAPTVIANVPLDADVFNNEPFGPVAAIRGFDKLEEAIAEANRLPFGLAGYAFTRSFANVHLLTQRLEVGMLWINQPATPWPEMPFGGVKDSGYGSEGGPEALEPYLVTKSVTVMAV
B9: AbKGSADH (Azospirillum brasilense; R281F) (protein)
chain: ANVTYTDTQLLIDGEWVDAASGKTIDVVNPATGKPIGRVAHAGIADLDRALAAAQSGFEAWRKVPAHERAATMRKAAALVRERADAIAQLMTQEQGKPLTEARVEVLSAADIIEWFADEGRRVYGRIVPPRNLGAQQTVVKEPVGPVAAFTPWNFPVNQVVRKLSAALATGCSFLVKAPEETPASPAALLRAFVDAGVPAGVIGLVYGDPAEISSYLIPHPVIRKVTFTGSTPVGKQLASLAGLHMKRATMELGGHAPVIVAEDADVALAVKAAGGAKFFNAGQVCISPTRFLVHNSIRDEFTRALVKHAEGLKVGNGLEEGTTLGALANPRRLTAMASVIDNARKVGASIETGGERIGSEGNFFAPTVIANVPLDADVFNNEPFGPVAAIRGFDKLEEAIAEANRLPFGLAGYAFTRSFANVHLLTQRLEVGMLWINQPATPWPEMPFGGVKDSGYGSEGGPEALEPYLVTKSVTVMAV
B10: AbKGSADH (Azospirillum brasilense; R281Q) (protein)
chain: ANVTYTDTQLLIDGEWVDAASGKTIDVVNPATGKPIGRVAHAGIADLDRALAAAQSGFEAWRKVPAHERAATMRKAAALVRERADAIAQLMTQEQGKPLTEARVEVLSAADIIEWFADEGRRVYGRIVPPRNLGAQQTVVKEPVGPVAAFTPWNFPVNQVVRKLSAALATGCSFLVKAPEETPASPAALLRAFVDAGVPAGVIGLVYGDPAEISSYLIPHPVIRKVTFTGSTPVGKQLASLAGLHMKRATMELGGHAPVIVAEDADVALAVKAAGGAKFQNAGQVCISPTRFLVHNSIRDEFTRALVKHAEGLKVGNGLEEGTTLGALANPRRLTAMASVIDNARKVGASIETGGERIGSEGNFFAPTVIANVPLDADVFNNEPFGPVAAIRGFDKLEEAIAEANRLPFGLAGYAFTRSFANVHLLTQRLEVGMLWINQPATPWPEMPFGGVKDSGYGSEGGPEALEPYLVTKSVTVMAV

Substrate in this data set: O=CCCO
Description: purified protein. Conditions: 500 μM NAD, 100 mM Tris-HCl pH 8.0, 25 °C, 50 nM enzyme, 0.5-10 mM 3HPA. In kind it is biochemical, Azospirillum brasilense.
In the case of B1, the Km is recorded as 4.714 ± 0.547 mM, the kcat came out at 19.5 ± 1.04 s⁻¹ and the specificity constant (kcat/Km) was 4140 M⁻¹ s⁻¹.

B2: the Km is recorded as 4.156 ± 1.377 mM, the turnover number (kcat) was found to be 17 ± 2.5 s⁻¹ and the kcat/Km stood at 4100 M⁻¹ s⁻¹.

Regarding B3, the Km is recorded as 3.512 ± 2.070 mM, the kcat was determined as 6.59 ± 1.58 s⁻¹ and the kcat/Km is 1880 M⁻¹ s⁻¹.

Take B4: the Km was 1.646 ± 0.726 mM, the turnover number (kcat) was 6 ± 0.877 s⁻¹ and the kcat/Km was determined as 3640 M⁻¹ s⁻¹.

Take B5: the Km was determined as 4.581 ± 0.921 mM, the kcat is 21.5 ± 1.99 s⁻¹ and the specificity constant (kcat/Km) came out at 4700 M⁻¹ s⁻¹.

B6: the Michaelis constant (Km) amounted to 4.690 ± 2.996 mM, the turnover number (kcat) came out at 17.3 ± 5.1 s⁻¹ and the kcat/Km is 3700 M⁻¹ s⁻¹.

As to B7, the Km was 4.204 ± 1.184 mM, the kcat was 18.8 ± 2.36 s⁻¹ and the kcat/Km worked out at 4480 M⁻¹ s⁻¹.

Take B8: the Km is reported as 2.338 ± 0.372 mM, the catalytic constant (kcat) was found to be 26.6 ± 1.56 s⁻¹ and the specificity constant (kcat/Km) worked out at 11400 M⁻¹ s⁻¹.

In the case of B9, the Km is listed as 3.808 ± 0.728 mM, the kcat was 21.9 ± 1.8 s⁻¹ and the kcat/Km was 5760 M⁻¹ s⁻¹.

In the case of B10, the Km came out at 5.764 ± 1.462 mM, the catalytic constant (kcat) came out at 31.5 ± 3.94 s⁻¹ and the kcat/Km came to 5470 M⁻¹ s⁻¹.
